Reference: patent US9850293B2, “Targeting trastuzumab-resistant HER2+ breast cancer with a HER3-targeting nanoparticle” (priority 2014, dated 2017)

Legend:
HER2+ tumors = test: HerDox and Dox biodistribution (Dox fluorescence imaging)
Description: FIG. 11 (A) depicts imaging of live mice after IV delivery of HerDox. Tumors are indicated by arrows.

JIMT-1 tumors = test: Trastuzumab-resistant tumor growth in vivo; design: species or system mouse; settings: 0.004 mg Dox/kg/injection, twice-weekly IV
Experimental: (§1) Tumor volumes were measured by calipers. Day 0 corresponds to first day of treatment. N=10 tumors per treatment.
as §1
The efficacy of HerDox was also examined on a cell line with pre-existing resistance.
The contribution of HER3 to targeted toxicity was evaluated by assessing whether pre-adsorbing HerDox with a peptide comprising the ligand-binding domain of HER3 blocked cytotoxicity.

[1] = HerDox stability under storage conditions; assay type: physicochemical; settings: up to 12 days
Experimental: FIG. 6 (A) illustrates conjugate stability under different storage conditions, or in serum. HerDox was incubated up to 12 days at 4° C., Room Temperature, or 37° C. Samples were filtered through ultrafiltration spin columns every other day.
(§2) The inventors tested the stability of HerDox over 12 days under different storage temperatures: 40° C., room temperature, or 37° C. […] The inventors also examined HerDox stability in serum-containing media at 37° C. […] Dox retention in the conjugate was also assessed by eluting the conjugate from the beads at each time point.

[2] = HerDox stability in serum-containing media; assay type: in vitro ADME; settings: 10% fetal bovine serum media, 37° C.
Experimental: FIG. 6 (B) mimics extended exposure of HerDox to cells in culture medium. HerDox immobilized on Ni-NTA beads were incubated with bovine serum in DMEM for the indicated times at 37° C. before each sample was pelleted. […] Relative Dox release or retention in serum is expressed as normalized to control (corresponding sample lacking serum). N=3 per time point.
as §2

[3] = Off-target toxicity in treated mice (weight, heart, liver)
Experimental: Relative cell survival (as % of untreated cells) on day 3 of treatment. (+Her), pre-incubation of MDA-MB-435 cells with receptor-blocking ligand (recombinant heregulin) before receiving HerDox. N=3. […] Tissues were harvested from independently injected mice euthanized at indicated time points after injection and fluorescence intensity/tissue acquired using a multimode imager. […] Bar, about 4 μm. […] Day 0=3 days before tail vein injections (mice received daily injections for 7 days). […] Day 0=3 days before tail vein injections (mice received daily injections for 7 days). […] Micrographs (20× magnification) in (E) also show representative H&E stained specimens of myocardia and immunofluorescent specimens of livers from treated mice. Green fluorescence in nuclei indicates apoptosis (positive TUNEL stain).

[4] = system: SKBR3 trastuzumab-resistant cells; test: Tumor cell killing in culture; assay type: cell-based, human; settings: 48-72 h after treatment
Experimental: FIG. 21 depicts graph that show the results of the administration of HerDox on various cells. […] N=3. *=p<0.05 compared to parental. […] N=3.
N=3. *, p<0.05 compared to parental. […] N=3. […] Parental and resistant cell lines were treated with HerDox−/+HER3 blocking peptide (ErbB3 human; Prospec), and tested for cell survival 48 hours later. […] Treatments were compared to mock (saline)-treatment. […] N=3. *, p<0.05 compared to parental. […] N=3.
Each therapeutic was administered at concentration ranges previously established for eliciting therapeutic efficacy.
Each therapeutic was administered at concentration ranges previously established or known in the art for eliciting therapeutic efficacy.

MDA-MB-435 cells [5] = test: Intracellular translocation of HerDox and Dox (microscopy); assay type: cell-based, human
Experimental: Live (unfixed) cells were imaged by brightfield and fluorescence microscopy.
Live (unfixed) cells were imaged by DIC and confocal fluorescence microscopy.
FIG. 15 illustrates HerDox trafficking in breast cancer cells. Cells incubated with HerDox at 37° C. were fixed at the indicated time points and processed for immunofluorescence using an antibody against HerPBK10. Images were captured using confocal microscopy under fluorescence and brightfield. n, nucleus; Bar, ˜8 microns.

[6] = system: MDA-MB-435 (non-GFP, HER2+); test: Targeting in a mixed cell culture; assay type: cell-based, human; settings: 0.5 μM Dox, day 2
Experimental: (§3) FIG. 9 (A) illustrates targeting in a mixed cell culture.
(§4) FIG. 9 (B) further illustrates targeting in a mixed cell culture. Cell survival was determined by calculating the relative doubling time (DT) of experimental (exp) cells normalized by control (con) cells based on the crystal violet stains (total cells) and GFP fluorescence (MDA-MB-231 cells). The DT of MDA-MB-435 was determined by subtracting the DT of MDA-MB-231 from the total cell DT. Relative survival is shown for Day 2 of treatment.
(§5) By three days, HerDox reduced HER2+ cell numbers by over 75% whereas HER2− cell survival was unaffected (FIG. 7). […] These findings emphasize the importance of targeting by showing that the untargeted drug affects nontarget (i.e. HER2−) cells. […] To test receptor targeting, the inventors used free heregulin ligand (Her or eHRG) as a competitive inhibitor. […] As a final in vitro challenge, the inventors tested whether HerDox induces toxicity specifically to HER2+ cells in a mixed culture of HER2+ and HER2− breast cancer cells. To do this, the inventors produced a HER2− cell line tagged with green fluorescent protein (GFP) for cell identification in the mixed culture (FIG. 9-A). […] Altogether, these findings indicate that HerDox has the capacity to preferentially target toxicity to HER2+ cells. […] In serum-containing media, no such loss from HerDox is detectable. […]

[7] = system: GFP(+) MDA-MB-231 (HER2−); test: Targeting in a mixed cell culture; assay type: cell-based, human; settings: 0.5 μM Dox, day 2
Experimental: as §3, §4, §5

MDA-MB-435 cells [8] = test: Trastuzumab pre-treatment before HerDox, cell survival; assay type: cell-based, human; settings: MDA-MB-435, 24 h pre-treatment
Description: N=3. […] N=3. […] N=3. […] N=3. […] N=3. […] N=3.

[9] = single tail vein injection, live imaging
[10] = tissues harvested ~3 h after injection

B1: HerDox: non-covalent complex of HerPBK10, double-stranded oligonucleotide and intercalated Dox (Unit A+Unit B+Unit C) (conjugate)
chain: SHLVKCAEKEKTFCVNGGECFMVKDLSNPSRYLCKCQPGFTGARCTENVPMKVQNQEKAEELYQKMRRAAMYEEGPPPSYESVVSAAPVAAALGSPFDAPLDPPFVPPRYLRPTGGRNSIRYSELAPLFDTTRVYLVDNKSTDVASLNYQNDHSNFLTTVIQNNDYSPGEASTQTINLDDRSHWGGDLKTILHTNMPNVNEFMFTNKFKARVMVSRLPTKDNQVELKYEWVEFTLPEGNYSETMTIDLMNNAIVEHYLKVGRQNGVLESDIGVKFDTRNFRLGFDPVTGLVMPGVYTNEAFHPDIILLPGCGVDFTHSRLSNLLGIRKRQPFQEGFRITYDDLEGGNIPALLDVDAYQASLKDDTEQGGGGAGGSNSSGSGAEENSNAAAAAMQPVEDMNDHAIRGDTFATRAEEKRAEAEAAAEAAAPAAQPEVEKPQKKPVIKPLTEDSKKRSYNLISNDSTFTQYRSWYLAYNYGDPQTGIRSWTLLCTPDVTCGSEQVYWSLPDMMQDPVTFRSTRQISNFPVVGAELLPVHSKSFYNDQAVYSQLIRQFTSLTHVFNRFPENQILARPPAPTITTVSENVPALTDHGTLPLRNSIGGVQRVTITDARRRTCPYVYKALGIVSPRVLSSRTFKKKKKKKKKK
modifications: left off: small tags and cut ends
time fluorescence remained detectable in the tumors (HER2+ tumors; [9]): up to 100 min
time of fluorescence accumulation at the tumors (HER2+ tumors; [9]): ≤ 20 min
fluorescence in kidneys (HER2+ tumors; [10]): barely detectable
fluorescence in liver (HER2+ tumors; [10]): substantially lower levels of fluorescence
fluorescence in other tissues (heart, spleen, lungs, skeletal muscle) (HER2+ tumors; [10]): did not exhibit any fluorescence
fluorescence in tumors (HER2+ tumors; [10]): intense fluorescence in the tumors
effect on JIMT-1 tumor growth (JIMT-1 tumors): ablated tumor growth
product remaining intact ([1]; 4° C.): 100%
effect of storage on drug incorporation ([1]; room temperature and 37° C.): appeared to enhance the incorporation of the drug
Dox release from conjugate in serum [2]: no significant release of Dox
Dox retention by conjugate in serum ([2]; each time point): completely retained
cardiac function (echocardiograms) ([3]; 25 days following injections): no effect on these measurements
liver and heart toxicity ([3]; systemic delivery in vivo): avoiding liver and heart toxicity
cell death [4]: > 80%
intracellular location of Dox fluorescence (MDA-MB-435 cells [5]; 0 min of uptake, 0.5 μM): mostly at the cell periphery
localization of HerPBK10 and Dox (immunofluorescence) (MDA-MB-435 cells [5]; 30 and 60 min): increasing levels of Dox accumulate in the nucleus while the majority of HerPBK10 remains in the cytoplasm
colocalization of HerPBK10 and Dox (immunofluorescence) (MDA-MB-435 cells [5]; 15 min of uptake): HerPBK10 mostly colocalizes with Dox
intracellular location of Dox fluorescence (MDA-MB-435 cells [5]; 60 min): accumulated in the nucleus
intranuclear pattern of Dox in live cells (MDA-MB-435 cells [5]; confocal, live cells): preferentially accumulates in nucleolar structures
non-GFP (HER2+) cell proliferation in mixed culture [6]: nearly completely reduced
GFP (HER2−) cell growth in mixed culture [7]: not altered
enhancement of HerDox toxicity by trastuzumab pre-treatment (MDA-MB-435 cells [8]): modest enhancement in toxicity
